Reference: US20160304578A1 (XYPHOS BIOSCIENCES, published 2016)

Assays:
human NKG2D-Fc [1] = target: T1, human NKG2D-Fc (human, UniProt P26718 78-216, limits assumed); assay: phage ELISA: ULBP2 variant displayed on phage titrated against NKG2D
T1 construct: not shown: Fc part
T1 sequence (looked up): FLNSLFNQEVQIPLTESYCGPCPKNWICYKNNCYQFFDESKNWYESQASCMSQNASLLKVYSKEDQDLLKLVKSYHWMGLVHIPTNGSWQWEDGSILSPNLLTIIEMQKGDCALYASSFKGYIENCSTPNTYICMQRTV

[2] = target: T2, NKG2D on the human NK cell line NKL (human, UniProt P26718 1-216); assay: cell-based or functional assay
T2 sequence (looked up): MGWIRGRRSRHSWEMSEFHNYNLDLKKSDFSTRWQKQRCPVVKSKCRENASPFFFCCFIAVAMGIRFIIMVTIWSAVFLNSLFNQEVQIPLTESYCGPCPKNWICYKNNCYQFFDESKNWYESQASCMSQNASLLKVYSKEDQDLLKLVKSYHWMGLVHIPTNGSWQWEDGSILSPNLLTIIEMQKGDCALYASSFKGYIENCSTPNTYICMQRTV

biotinylated human NKG2D [3] = target: T3, biotinylated human NKG2D (human, UniProt P26718 78-216, limits assumed, biotinylated (site not stated)); assay: biolayer interferometry (Octet), Kd = kOFF/kON
T3 construct: also called recombinant biotinylated NKG2D
T3 sequence (looked up): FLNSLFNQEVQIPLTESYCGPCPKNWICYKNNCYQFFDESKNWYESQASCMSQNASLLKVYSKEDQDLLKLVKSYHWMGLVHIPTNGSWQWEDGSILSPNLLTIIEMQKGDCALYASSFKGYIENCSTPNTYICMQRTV

biotinylated human NKG2D [4] = target: T3, biotinylated human NKG2D; assay: biolayer interferometry (Octet), biotinylated human NKG2D; the reference is not named
Experimental: (§1) In order to characterize the NKG2D binding affinities, both the on-rates and off-rates for the three α1-α2 variant NKG2DLs binding to surface-coated biotinylated human NKG2D were measured using biolayer interferometry (Octet). Binding titrations were performed for each protein using a titration range of 1-100 nM, and the kinetic data were fitted to obtain on-rates, off-rates, and equilibrium binding constants.

biotinylated human NKG2D [5] = target: T3, biotinylated human NKG2D; assay: biolayer interferometry (Octet), surface-coated biotinylated human NKG2D, titration 1-100 nM
Experimental: as §1

biotinylated human NKG2D [6] = target: T3, biotinylated human NKG2D; assay: biolayer interferometry (Octet), biotinylated human NKG2D; Table 5 compared with Table 3
Experimental: as §1

human NKG2D-Fc [7] = target: T1, human NKG2D-Fc; assay: phage ELISA: ULBP3 variant displayed on phage titrated against NKG2D

B1: R80L (designed binder)
α1-α2 domain displayed on M13 phage (pIII fusion): AAEPHSLSYDITVIPKFRPGPRWCAVQGQVDEKTFLHYDCGNKTVTPVSPLGKKLNVTTAWKAQNPVLREVVDILTEQLLDIQLENYTPKEPLTLQARMSCEQKAEGHSSGSWQFSFDGQIFLLFDSEKRMWTTVHPGARKMKEKWENDKVVAMSFHYFSMGDCIGWLEDFLMGMDSTLEPSAGAPPMV
Human NKG2D-Fc [1]
  EC50 (read off the curve): ~0.01 OD268 (phage)

B2: V151D (designed binder)
α1-α2 domain displayed on M13 phage (pIII fusion): AAEPHSLCYDITVIPKFRPGPRWCAVQGQVDEKTFLHYDCGNKTVTPVSPLGKKLNVTTAWKAQNPVLREVVDILTEQLRDIQLENYTPKEPLTLQARMSCEQKAEGHSSGSWQFSFDGQIFLLFDSEKRMWTTVHPGARKMKEKWENDKDVAMSFHYFSMGDCIGWLEDFLMGMDSTLEPSAGAPPMV
Human NKG2D-Fc [1]
  EC50 (read off the curve): ~0.01 OD268 (phage)

B3: V152L (designed binder)
α1-α2 domain displayed on M13 phage (pIII fusion): AAEPHSLSYDITVIPKFRPGPRWCAVQGQVDEKTFLHYDCGNKTVTPVSPLGKKLNVTTAWKAQNPVLREVVDILTEQLRDIQLENYTPKEPLTLQARMSCEQKAEGHSSGSWQFSFDGQIFLLFDSEKRMWTTVHPGARKMKEKWENDKVLAMSFHYFSMGDCIGWLEDFLMGMDSTLEPSAGAPPMV
Human NKG2D-Fc [1]
  EC50 (read off the curve): ~0.01 OD268 (phage)

B4: α1-α2 variant 16 (designed binder)
chain: EPHSLRYNLTVLSWDGSVQSGFLTEVHLDGQPFLRCDRQKCRAKPQGQWAEDVLGNKTWDRETRDLTGWGKDLRMTLAHIKDQKEGLHSLQEIRVCEIHEDNSTRSSQHFYYDGELFLSQNLETLEWTMPQSSRAQTLAMNVRNFLKEDAMETDTHYHAMRADCLQELRRYLKSGVVLRRTVPPMVQVTRSEASGGSGDRVTITCRASQDVSTAVAWYQQKPGKAPKLLIYSASFLYSGVPSRFSGSGSGTDFTLTISSLQPEDFATYYCQQSYTTPPTFGQGTKVEIKGGSSRSSSSGGGGSGGGGEVQLVESGGGLVQPGGSLRLSCAASGFTFTSTGISWVRQAPGKGLEWVGRIYPTNGSTNYADSVKGRFTISADTSKNTAYLQMNSLRAEDTAVYYCARTYGIYDLYVDYTEYVMDYWGQGTLVTVSSGGSSRSSSSGGGGSGGGGDIQMTQSPSSLSASGGSGQITVTCRASGFYPWNITLSWRQDGVSLSHDTQQWGDVLPDGQGTYQTWVATRISQGEEQRFTCYMEHSGQHSTHPVPSGKGSHHHHHH
[2]
  killing of FGFR3-expressing P815 target cells by NKL cells (calcein-release assay), fold over WT at 0.78 nM: ~15 fold

B5: α1-α2 variant 48 (designed binder)
chain: EPHSLRYNLTVLSWDGSVQSGFLTEVHLDGQPFLRCDRQKCRAKPQGQWAEDVLGNKTWDRETRDLTGWGKDLRMTLAHIKDQKEGLHSLQEIRVCEIHEDNSTRSSQHFYYDGELFLSQNLETLEWTMPQSSRAQTLAMNVRNFLKEDAMATDTHYIAMRADCLAELRRYLKSGVVLRRTVPPMVQVTRSEASGGSGDRVTITCRASQDVSTAVAWYQQKPGKAPKLLIYSASFLYSGVPSRFSGSGSGTDFTLTISSLQPEDFATYYCQQSYTTPPTFGQGTKVEIKGGSSRSSSSGGGGSGGGGEVQLVESGGGLVQPGGSLRLSCAASGFTFTSTGISWVRQAPGKGLEWVGRIYPTNGSTNYADSVKGRFTISADTSKNTAYLQMNSLRAEDTAVYYCARTYGIYDLYVDYTEYVMDYWGQGTLVTVSSGGSSRSSSSGGGGSGGGGDIQMTQSPSSLSASGGSGQITVTCRASGFYPWNITLSWRQDGVSLSHDTQQWGDVLPDGQGTYQTWVATRISQGEEQRFTCYMEHSGQHSTHPVPSGKGSHHHHHH
notes: Expressed in HEK293 (Expi293)
Biotinylated human NKG2D [3]
  Kd: 15 nM
Biotinylated human NKG2D [4]
  fold reduction in NKG2D binding affinity: 250 fold
Biotinylated human NKG2D [5]
  koff: 0.003 s⁻¹
  kon: 200000 M⁻¹ s⁻¹

B6: α1-α2 variant 18 (designed binder)
chain: EPHSLRYNLTVLSWDGSVQPGFLTEVHLDGQPFLRCDRQKCRAKPQGQWAEDVLGNKTWDRETRDLTLWGKDLRMTLAHIKDQKEGLHSLQEIRVCEIHEDNSTRSSQHFYYDGELFLSQNLETLEWTMPQSSRAQTLAMNVRNFLKEDAMETDTHYHAMRADCLQELRRYLKSGVVLRRTVPPMVQVTRSEASGGSGDRVTITCRASQDVSTAVAWYQQKPGKAPKLLIYSASFLYSGVPSRFSGSGSGTDFTLTISSLQPEDFATYYCQQSYTTPPTFGQGTKVEIKGGSSRSSSSGGGGSGGGGEVQLVESGGGLVQPGGSLRLSCAASGFTFTSTGISWVRQAPGKGLEWVGRIYPTNGSTNYADSVKGRFTISADTSKNTAYLQMNSLRAEDTAVYYCARTYGIYDLYVDYTEYVMDYWGQGTLVTVSSGGSSRSSSSGGGGSGGGGDIQMTQSPSSLSASGGSGQITVTCRASGFYPWNITLSWRQDGVSLSHDTQQWGDVLPDGQGTYQTWVATRISQGEEQRFTCYMEHSGQHSTHPVPSGKGSHHHHHH
[2]
  killing of FGFR3-expressing P815 target cells by NKL cells (calcein-release assay), fold over WT at 0.78 nM: ~15 fold

B7: α1-α2 variant 17 (designed binder)
chain: EPHSLRYNLTVLSWDGSVQSGFLTEVHLDGQPFLRCDRQKCRAKPQGQWAEDVLGNKTWDRETRDLTLWGKDLRMTLAHIKDQKEGLHSLQEIRVCEIHEDNSTRSSQHFYYDGELFLSQNLETLEWTMPQSSRAQTLAMNVRNFLKEDAMETDTHYHAMRADCLQELRRYLKSGVVLRRTVPPMVQVTRSEASGGSGDRVTITCRASQDVSTAVAWYQQKPGKAPKLLIYSASFLYSGVPSRFSGSGSGTDFTLTISSLQPEDFATYYCQQSYTTPPTFGQGTKVEIKGGSSRSSSSGGGGSGGGGEVQLVESGGGLVQPGGSLRLSCAASGFTFTSTGISWVRQAPGKGLEWVGRIYPTNGSTNYADSVKGRFTISADTSKNTAYLQMNSLRAEDTAVYYCARTYGIYDLYVDYTEYVMDYWGQGTLVTVSSGGSSRSSSSGGGGSGGGGDIQMTQSPSSLSASGGSGQITVTCRASGFYPWNITLSWRQDGVSLSHDTQQWGDVLPDGQGTYQTWVATRISQGEEQRFTCYMEHSGQHSTHPVPSGKGSHHHHHH
[2]
  killing of FGFR3-expressing P815 target cells by NKL cells (calcein-release assay), fold over WT at 0.78 nM: ~15 fold

B8: α1-α2 variant 25 (designed binder)
chain: EPHSLRYNLTVLSWDGSVQSGFLTEVHLDGQPFLRCDRQKCRAKPQGQWAEDVLGNKTWDRETRDLTGWGKDLRMTLAHIKDQKEGLHSLQEIRVCEIHEDNSTRSSQHFYYDGELFLSQNLETLEWTMPQSSRAQTLAMNVRNFLKEDAMETDTHYHAMRADCLSELRRYLKSGVVLRRTVPPMVQVTRSEASGGSGDRVTITCRASQDVSTAVAWYQQKPGKAPKLLIYSASFLYSGVPSRFSGSGSGTDFTLTISSLQPEDFATYYCQQSYTTPPTFGQGTKVEIKGGSSRSSSSGGGGSGGGGEVQLVESGGGLVQPGGSLRLSCAASGFTFTSTGISWVRQAPGKGLEWVGRIYPTNGSTNYADSVKGRFTISADTSKNTAYLQMNSLRAEDTAVYYCARTYGIYDLYVDYTEYVMDYWGQGTLVTVSSGGSSRSSSSGGGGSGGGGDIQMTQSPSSLSASGGSGQITVTCRASGFYPWNITLSWRQDGVSLSHDTQQWGDVLPDGQGTYQTWVATRISQGEEQRFTCYMEHSGQHSTHPVPSGKGSHHHHHH
notes: Expressed in HEK293 (Expi293)
[2]
  EC50 for cell killing, fold improvement over variant 16: ~5 fold
  killing of FGFR3-expressing P815 target cells by NKL cells (calcein-release assay), fold over variant 16 at 0.2 nM: ~3 fold
Biotinylated human NKG2D [3]
  Kd: 0.062 nM
Biotinylated human NKG2D [6]
  fold enhancement in equilibrium binding affinity against variant 16: 8 fold
Biotinylated human NKG2D [5]
  koff: 2.9e-05 s⁻¹
  kon: 470000 M⁻¹ s⁻¹

B9: α1-α2 variant 20 (designed binder)
chain: EPHSLRYNLTVLSWDGSVQSGFLTEVHLDGQPFLRCDRQKCRAKPQGQWAEDVLGNKTWDRETRDLTAWGKDLRMTLAHIKDQKEGLHSLQEIRVCEIHEDNSTRSSQHFYYDGELFLSQNLETLEWTMPQSSRAQTLAMNVRNFLKEDAMQTDTHYRAMHADCLFELRRYLKSGVVLRRTVPPMVQVTRSEASGGSGDRVTITCRASQDVSTAVAWYQQKPGKAPKLLIYSASFLYSGVPSRFSGSGSGTDFTLTISSLQPEDFATYYCQQSYTTPPTFGQGTKVEIKGGSSRSSSSGGGGSGGGGEVQLVESGGGLVQPGGSLRLSCAASGFTFTSTGISWVRQAPGKGLEWVGRIYPTNGSTNYADSVKGRFTISADTSKNTAYLQMNSLRAEDTAVYYCARTYGIYDLYVDYTEYVMDYWGQGTLVTVSSGGSSRSSSSGGGGSGGGGDIQMTQSPSSLSASGGSGQITVTCRASGFYPWNITLSWRQDGVSLSHDTQQWGDVLPDGQGTYQTWVATRISQGEEQRFTCYMEHSGQHSTHPVPSGKGSHHHHHH
notes: Expressed in HEK293 (Expi293)
Biotinylated human NKG2D [3]
  Kd: 0.083 nM
Biotinylated human NKG2D [5]
  koff: 3e-05 s⁻¹
  kon: 360000 M⁻¹ s⁻¹

B10: K165S (designed binder)
α1-α2 domain displayed on M13 phage (pIII fusion): AAEPHSLWYNFTIIHLPRHGQQWCEVQSQVDQKNFLSYDCGSDKVLSMGHLEEQLYATDAWGKQLEMLREVGQRLRLELADTELEDFTPSGPLTLQVRMSCESEADGYIRGSWQFSFDGRKFLLFDSNNRKWTVVHAGARRMKEKWEKDSGLTTFFKMVSMRDCSSWLRDFLMHRKKRLEPTAPPMV
Human NKG2D-Fc [7]
  EC50 (read off the curve): ~0.002 OD268 (phage)

B11: K165P (designed binder)
α1-α2 domain displayed on M13 phage (pIII fusion): AAEPHSLWYNFTIIHLPRHGQQWCEVQSQVDQKNFLSYDCGSDKVLSMGHLEEQLYATDAWGKQLEMLREVGQRLRLELADTELEDFTPSGPLTLQVRMSCESEADGYIRGSWQFSFDGRKFLLFDSNNRKWTVVHAGARRMKEKWEKDSGLTTFFKMVSMRDCPSWLRDFLMHRKKRLEPTAPPMV
Human NKG2D-Fc [7]
  EC50 (read off the curve): ~0.004 OD268 (phage)

B12: R162G (designed binder)
α1-α2 domain displayed on M13 phage (pIII fusion): AAEPHSLWYNFTIIHLPRHGQQWCEVQSQVDQKNFLSYDCGSDKVLSMGHLEEQLYATDAWGKQLEMLREVGQRLRLELADTELEDFTPSGPLTLQVRMSCECEADGYIRGSWQFSFDGRKFLLFDSNNRKWTVVHAGARRMKEKWEKDSGLTTFFKMVSMGDCKSWLRDFLMHRKKRLEPTAPPMV
Human NKG2D-Fc [7]
  EC50 (read off the curve): ~0.005 OD268 (phage)
